These results are taken from patent US20240376224A1 (University of California, published 2024).

Assay [1] has as its target T1, full-length (uncleaved) human CDCP1 on cells (human, UniProt Q9H5V8 30-836).
T1 construct: HPAC cells express mostly uncleaved CDCP1 (endogenous); also called fl-CDCP1; uncleaved CDCP1 on HPAC cells
T1 sequence: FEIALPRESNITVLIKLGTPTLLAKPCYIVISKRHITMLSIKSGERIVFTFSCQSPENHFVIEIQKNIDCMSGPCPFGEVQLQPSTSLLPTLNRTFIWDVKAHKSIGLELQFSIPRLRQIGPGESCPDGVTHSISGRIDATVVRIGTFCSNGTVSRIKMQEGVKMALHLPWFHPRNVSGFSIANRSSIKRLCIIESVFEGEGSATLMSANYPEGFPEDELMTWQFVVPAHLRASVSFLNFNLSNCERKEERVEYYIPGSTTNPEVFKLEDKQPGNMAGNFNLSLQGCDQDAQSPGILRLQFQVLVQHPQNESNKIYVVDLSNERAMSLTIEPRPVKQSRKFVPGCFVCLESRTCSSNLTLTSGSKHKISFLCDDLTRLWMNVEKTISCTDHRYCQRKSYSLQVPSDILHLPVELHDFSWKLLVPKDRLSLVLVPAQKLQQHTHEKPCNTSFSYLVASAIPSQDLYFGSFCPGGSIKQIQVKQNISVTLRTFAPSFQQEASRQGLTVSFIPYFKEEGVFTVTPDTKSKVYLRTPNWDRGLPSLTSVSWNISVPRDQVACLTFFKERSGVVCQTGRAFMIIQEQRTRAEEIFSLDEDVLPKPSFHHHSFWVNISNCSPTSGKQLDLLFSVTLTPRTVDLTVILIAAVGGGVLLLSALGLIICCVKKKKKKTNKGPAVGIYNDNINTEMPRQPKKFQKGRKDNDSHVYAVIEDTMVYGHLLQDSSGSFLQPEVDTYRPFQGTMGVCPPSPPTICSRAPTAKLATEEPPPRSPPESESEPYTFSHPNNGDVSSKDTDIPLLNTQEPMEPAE
The experiment in a line: flow cytometry, dose response on HEK293T-flCDCP1 cells (CDCP1 WT). For orientation: Flow cytometry measures light scatter and fluorescence of single cells or particles in a stream.

In assay [2] the target is T2, c-CDCP1 (Cut 3) on HEK293T cells (human, UniProt Q9H5V8 30-369; Q9H5V8 370-836).
T2 construct: T2A remnants not described; also called HEK293T c-CDCP1
T2 sequence 1: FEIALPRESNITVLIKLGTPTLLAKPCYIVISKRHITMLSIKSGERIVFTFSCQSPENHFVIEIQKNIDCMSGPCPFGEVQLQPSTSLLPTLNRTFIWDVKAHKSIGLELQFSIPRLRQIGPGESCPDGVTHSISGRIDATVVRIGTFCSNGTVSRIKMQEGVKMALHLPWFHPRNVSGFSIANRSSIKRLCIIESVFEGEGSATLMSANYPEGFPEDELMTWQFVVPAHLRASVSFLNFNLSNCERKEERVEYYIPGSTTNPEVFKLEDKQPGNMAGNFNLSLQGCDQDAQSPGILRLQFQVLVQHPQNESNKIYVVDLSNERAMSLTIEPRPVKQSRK
T2 sequence 2: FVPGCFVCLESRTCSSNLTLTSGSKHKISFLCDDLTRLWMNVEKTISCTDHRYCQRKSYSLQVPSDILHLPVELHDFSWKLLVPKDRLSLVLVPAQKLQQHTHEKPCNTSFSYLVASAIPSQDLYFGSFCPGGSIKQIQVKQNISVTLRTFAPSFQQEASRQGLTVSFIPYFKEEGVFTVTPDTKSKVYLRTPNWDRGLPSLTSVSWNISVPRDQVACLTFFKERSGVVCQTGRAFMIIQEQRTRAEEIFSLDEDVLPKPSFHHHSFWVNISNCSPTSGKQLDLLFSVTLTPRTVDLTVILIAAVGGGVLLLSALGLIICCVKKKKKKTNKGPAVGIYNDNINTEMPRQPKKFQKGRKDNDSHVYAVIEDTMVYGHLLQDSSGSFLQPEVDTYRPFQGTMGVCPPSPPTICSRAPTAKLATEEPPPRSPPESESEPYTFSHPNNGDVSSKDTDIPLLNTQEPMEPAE
The experiment in a line: flow cytometry, dose response on HEK293T-cCDCP1 cells (CDCP1 WT).

For assay [3], the target named is T3, c-CDCP1-Fc (Cut 2) (human, UniProt Q9H5V8 30-368; Q9H5V8 369-667).
T3 construct: Co-transfection of NTF and CTF-Fc plasmids; not shown: Fc domain
T3 sequence 1: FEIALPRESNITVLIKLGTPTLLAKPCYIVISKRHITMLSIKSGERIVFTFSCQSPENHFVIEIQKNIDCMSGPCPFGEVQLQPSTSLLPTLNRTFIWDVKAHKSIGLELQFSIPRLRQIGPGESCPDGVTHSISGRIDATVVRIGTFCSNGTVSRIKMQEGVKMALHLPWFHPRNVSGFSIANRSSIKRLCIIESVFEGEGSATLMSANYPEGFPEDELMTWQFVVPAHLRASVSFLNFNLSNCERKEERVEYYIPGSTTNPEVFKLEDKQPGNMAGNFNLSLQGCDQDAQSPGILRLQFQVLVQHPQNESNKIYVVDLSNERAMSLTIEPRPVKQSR
T3 sequence 2: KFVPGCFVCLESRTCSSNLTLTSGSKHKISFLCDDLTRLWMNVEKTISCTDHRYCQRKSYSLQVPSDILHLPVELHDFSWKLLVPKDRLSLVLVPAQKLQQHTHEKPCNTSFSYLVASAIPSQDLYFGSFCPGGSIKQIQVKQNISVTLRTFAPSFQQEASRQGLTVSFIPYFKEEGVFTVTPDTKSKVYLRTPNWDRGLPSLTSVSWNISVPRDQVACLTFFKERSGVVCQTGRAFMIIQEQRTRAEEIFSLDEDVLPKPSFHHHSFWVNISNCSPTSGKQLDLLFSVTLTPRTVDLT
The experiment in a line: BLI (Octet), table of in vitro binding affinities. On the procedure: (§1) BLI experiments were performed using an Octet RED384 instrument (ForteBio). Biotinylated proteins were immobilized on a streptavidin (SA) biosensor and His-tagged proteins were immobilized on a Ni-NTA biosensor. Different concentrations of analyte in PBS pH 7.4+0.05% Tween-20+0.2% BSA (PBSTB) were used as analyte. Affinities (KDS) were calculated from a global fit (1:1) of the data using the Octet RED384 software.
For orientation: In BLI a coated tip is dipped into the sample, and binding shifts an interference pattern.

Assay [4] concerns the target T4, c-CDCP1-Fc (Cut 1) (human, UniProt Q9H5V8 30-365; Q9H5V8 366-667).
T4 construct: Co-transfection of NTF and CTF-Fc plasmids; not shown: Fc domain
T4 sequence 1: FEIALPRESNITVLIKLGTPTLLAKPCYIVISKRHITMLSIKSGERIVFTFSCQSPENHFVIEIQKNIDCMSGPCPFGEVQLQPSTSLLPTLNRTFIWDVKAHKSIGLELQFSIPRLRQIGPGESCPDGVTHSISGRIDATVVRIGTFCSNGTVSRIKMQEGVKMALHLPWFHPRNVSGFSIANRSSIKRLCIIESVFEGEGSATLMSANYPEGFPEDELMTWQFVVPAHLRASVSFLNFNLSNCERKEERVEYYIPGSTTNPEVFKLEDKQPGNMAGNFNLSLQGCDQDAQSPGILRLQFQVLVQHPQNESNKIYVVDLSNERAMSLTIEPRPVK
T4 sequence 2: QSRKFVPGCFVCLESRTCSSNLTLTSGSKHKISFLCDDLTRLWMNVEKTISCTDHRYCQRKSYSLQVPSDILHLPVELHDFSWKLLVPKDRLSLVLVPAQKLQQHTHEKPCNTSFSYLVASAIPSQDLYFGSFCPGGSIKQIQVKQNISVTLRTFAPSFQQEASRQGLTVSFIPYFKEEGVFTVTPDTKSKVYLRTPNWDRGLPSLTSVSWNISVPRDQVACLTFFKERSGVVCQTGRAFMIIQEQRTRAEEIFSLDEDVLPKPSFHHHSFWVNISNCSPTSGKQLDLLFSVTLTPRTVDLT
The experiment in a line: BLI (Octet), table of in vitro binding affinities. On the procedure:
as §1

The target in assay [5] is T5, c-CDCP1-Fc (Cut 3) (human, UniProt Q9H5V8 30-369; Q9H5V8 370-667).
T5 construct: Co-transfection of NTF and CTF-Fc plasmids; not shown: Fc domain
T5 sequence 1: T2 sequence 1
T5 sequence 2: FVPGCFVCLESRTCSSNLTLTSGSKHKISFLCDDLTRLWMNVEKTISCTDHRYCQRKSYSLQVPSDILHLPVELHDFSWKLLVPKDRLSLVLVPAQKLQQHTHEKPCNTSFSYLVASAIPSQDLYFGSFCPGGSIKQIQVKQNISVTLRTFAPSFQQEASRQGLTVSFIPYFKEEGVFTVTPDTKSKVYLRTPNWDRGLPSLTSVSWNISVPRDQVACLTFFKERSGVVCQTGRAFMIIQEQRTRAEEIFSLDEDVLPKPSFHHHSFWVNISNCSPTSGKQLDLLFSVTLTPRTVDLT
The assay is described as follows: BLI (Octet), table of in vitro binding affinities. The protocol:
as §1

The target in assay [6] is T6, NTF immobilized via the N-termini (human, UniProt Q9H5V8 30-367, limits assumed).
T6 sequence: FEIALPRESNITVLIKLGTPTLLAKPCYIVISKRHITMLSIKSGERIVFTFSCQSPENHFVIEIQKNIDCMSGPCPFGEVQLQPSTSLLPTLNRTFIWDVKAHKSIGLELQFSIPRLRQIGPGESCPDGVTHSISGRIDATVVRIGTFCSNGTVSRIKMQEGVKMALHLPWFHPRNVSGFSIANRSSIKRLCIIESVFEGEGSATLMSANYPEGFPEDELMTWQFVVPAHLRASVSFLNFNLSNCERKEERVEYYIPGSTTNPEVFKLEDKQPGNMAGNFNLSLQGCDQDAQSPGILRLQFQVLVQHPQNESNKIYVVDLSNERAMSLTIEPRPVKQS
The assay is described as follows: multipoint BLI (Octet), His-NTF on a Ni-NTA biosensor, CL03 Fab at 100, 50, 25, 12.5, 6.25 nM. On the procedure:
as §1
(§2) To investigate the binding mechanism of CL03, the binding of CL03 to different CDCP1 antigens was measured by BLI using standard methods. In instances when the C-termini of the NTF was immobilized either via an Fc domain or directly to the biosensor surface, there was no binding of CL03 (FIG. 6A-FIG. 6B). In instances when the NTF was immobilized via the N-termini, CL03 bound NTF at similar affinity to the full c-CDCP1 antigen (FIG. 6B-FIG. 6C). Additionally, it was observed that CL03 recognized an uncleaved CDCP1 variant where a 16-amino acid linker was inserted between CUB1 and CUB2 at the R368/K369 proteolysis site (FIG. 6D).

The target of assay [7] is T7, c-CDCP1 (Cut 3) ectodomain (human, UniProt Q9H5V8 30-369; Q9H5V8 370-667).
T7 construct: Made by co-transfection of NTF and CTF plasmids, purified by Ni-NTA (tag not described); also called cCDCP1 ECD cut 3
T7 sequence 1: T2 sequence 1
T7 sequence 2: T5 sequence 2
The experiment in a line: multipoint BLI (Octet), c-CDCP1 (Cut 3) held by its His-tag on a Ni-NTA biosensor, CL03 Fab at 100, 50, 25, 12.5, 6.25 nM. On the procedure:
as §1, §2

B1: IgG 4A06 (antibody, V domains shown)
VH: EVQLVESGGGLVQPGGSLRLSCAASGFNLSYYYIHWVRQAPGKGLEWVASIYSSSSYTSYADSVKGRFTISADTSKNTAYLQMNSLRAEDTAVYYCARAYYGFDYWGQGTLVTVSS
VL: DIQMTQSPSSLSASVGDRVTITCRASQSVSSAVAWYQQKPGKAPKLLIYSASSLYSGVPSRFSGSRSGTDFTLTISSLQPEDFATYYCQQSYYYYPITFGQGTKVEIK
As for B1, the EC50 (read off the curve) – broadly, the midpoint of the concentration-response curve – in assay [1] was approximately 1 nM; in assay [2] it was approximately 0.4 nM.

B2: CL03 Fab (Fab, V domains shown)
VH: EVQLVESGGGLVQPGGSLRLSCAASGFNFSSYSIHWVRQAPGKGLEWVASIYPYSGSTYYADSVKGRFTISADTSKNTAYLQMNSLRAEDTAVYYCARQSHSYYSHTWWVSYGMDYWGQGTLVTVSS
VL: DIQMTQSPSSLSASVGDRVTITCRASQSVSSAVAWYQQKPGKAPKLLIYSASSLYSGVPSRFSGSRSGTDFTLTISSLQPEDFATYYCQQSGQRPITFGQGTKVEIKR
notes: also called Fab CL03
Turning to B2, the Kd (commonly the free concentration of one partner at which half of the binding sites on the other are occupied at equilibrium, for simple one-to-one binding) in assay [3] turned out to be 3.91 nM; in assay [4], 2.26 nM; in assay [5], 3.59 nM; in assay [6], 10.5 nM; in assay [7], 9.74 nM. For the same molecule, the koff (in general, a measure of how fast the partners let go of each other) in assay [4] was determined as 0.000648 s⁻¹. Also, the kon (commonly the second-order rate constant of association) in assay [4] was 288000 M⁻¹ s⁻¹.
